Source: article PMC1874611 (Nucleic Acids Research, 2007)

Legend:
[1] = target: T1, chimeric GST-CycT1 (GST-T1; aa 1–292) (UniProt O60563 1-292); assay: pull-down
[2] = target: T1, chimeric GST-CycT1 (GST-T1; aa 1–292); assay: stopped-flow fluorescence

T1 sequence (O60563 1-292, change not shown): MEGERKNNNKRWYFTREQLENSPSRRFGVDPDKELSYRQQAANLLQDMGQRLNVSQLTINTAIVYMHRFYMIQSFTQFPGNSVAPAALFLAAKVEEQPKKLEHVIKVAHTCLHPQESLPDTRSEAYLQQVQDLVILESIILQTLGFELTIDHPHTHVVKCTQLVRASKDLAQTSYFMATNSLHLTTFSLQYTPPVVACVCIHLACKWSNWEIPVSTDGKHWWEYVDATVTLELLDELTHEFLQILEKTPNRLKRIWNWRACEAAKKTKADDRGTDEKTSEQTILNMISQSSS

binding result [1] | binding result [2] | Binder
binds |  | CycT1-binding domain of HEXIM1 (HEXIM1-TBD; aa 255–359) (domain or fragment) MGGDGSEFLQRDFSETYERYHTESLQNMSKQELIKEYLELEKCLSRMEDENNRLRLESKRLGGDDARVRELELELDRLRAENLQLLTENELHRQQERAPLSKFGD
 | binds | fluorescently labeled HEXIM1-TBD (HEXIM1-TBD*) (domain or fragment, dansyl-based fluorophore (position not given)) MGGDGSEFLQRDFSETYERYHTESLQNMSKQELIKEYLELEKCLSRMEDENNRLRLESKRLGGDDARVRELELELDRLRAENLQLLTENELHRQQERAPLSKFGD
